From US20230002481A1 (Chugai, published 2023)

How the values were obtained:
[1] = biological target: T1, recombinant cyno C1r2s2 His/Flag tetramer (cynomolgus monkey, limits assumed); experiment: SPR (Biacore), antibody captured on ProA/G, antigen as analyte, 37 C, pH7.4, 1.2 mM CaCl2; pH 7.4
T1 construct: Heterotetramer of two C1r-His and two C1s-Flag chains, co-expressed in FreeStyle293-F cells; also called cyno C1r2s2s
T1 chain 1: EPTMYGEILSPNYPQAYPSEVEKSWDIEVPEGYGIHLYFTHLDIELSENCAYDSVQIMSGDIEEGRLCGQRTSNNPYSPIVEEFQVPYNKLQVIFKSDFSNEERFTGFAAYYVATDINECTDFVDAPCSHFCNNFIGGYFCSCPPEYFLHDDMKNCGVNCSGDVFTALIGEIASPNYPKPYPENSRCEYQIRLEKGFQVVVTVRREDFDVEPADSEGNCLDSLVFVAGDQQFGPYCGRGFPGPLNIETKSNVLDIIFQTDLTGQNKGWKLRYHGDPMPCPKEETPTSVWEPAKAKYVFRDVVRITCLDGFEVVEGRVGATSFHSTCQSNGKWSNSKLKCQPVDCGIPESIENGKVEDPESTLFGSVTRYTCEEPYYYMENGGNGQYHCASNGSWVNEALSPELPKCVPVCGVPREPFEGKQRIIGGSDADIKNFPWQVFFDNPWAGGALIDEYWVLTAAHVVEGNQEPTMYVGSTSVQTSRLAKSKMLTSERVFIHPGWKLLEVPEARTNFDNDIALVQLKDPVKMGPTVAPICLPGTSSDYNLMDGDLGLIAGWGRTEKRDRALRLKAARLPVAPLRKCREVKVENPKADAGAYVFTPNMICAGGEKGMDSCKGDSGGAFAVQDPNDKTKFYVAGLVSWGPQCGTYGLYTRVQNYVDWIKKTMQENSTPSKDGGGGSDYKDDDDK
T1 chain 2: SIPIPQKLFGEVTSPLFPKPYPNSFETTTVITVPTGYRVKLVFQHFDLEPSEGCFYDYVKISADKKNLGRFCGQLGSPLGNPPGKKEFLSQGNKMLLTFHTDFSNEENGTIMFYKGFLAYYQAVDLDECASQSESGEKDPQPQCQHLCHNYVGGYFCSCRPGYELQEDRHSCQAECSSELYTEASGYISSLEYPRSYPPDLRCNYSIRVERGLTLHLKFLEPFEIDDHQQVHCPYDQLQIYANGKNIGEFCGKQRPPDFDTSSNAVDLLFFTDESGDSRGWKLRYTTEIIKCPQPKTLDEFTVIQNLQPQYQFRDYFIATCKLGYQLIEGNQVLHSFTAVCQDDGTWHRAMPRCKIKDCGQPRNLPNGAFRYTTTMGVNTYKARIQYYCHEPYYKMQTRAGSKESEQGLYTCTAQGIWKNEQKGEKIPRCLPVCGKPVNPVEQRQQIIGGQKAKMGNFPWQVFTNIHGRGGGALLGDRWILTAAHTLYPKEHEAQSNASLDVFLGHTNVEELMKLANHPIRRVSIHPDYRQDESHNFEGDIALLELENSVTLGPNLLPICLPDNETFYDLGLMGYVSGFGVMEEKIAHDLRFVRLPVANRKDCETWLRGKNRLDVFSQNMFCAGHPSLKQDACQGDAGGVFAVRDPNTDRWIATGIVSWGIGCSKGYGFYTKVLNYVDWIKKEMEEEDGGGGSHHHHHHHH
Method: (§1) The kinetic parameters of anti-C1s antibodies against recombinant human C1s (as described in PCT/JP2018/042054), human C1r2s2, and cyno C1r2s2 His/Flag (also referred as cyno C1r2s2 in the Table and Figures) were assessed at pH7.4 and pH5.8, at 37 degrees C. using BIACORE (registered trademark) T200 instrument (GE Healthcare) or BIACORE 4000 (GE Healthcare). ProAG (Pierce) was immobilized onto a CM4 sensorchip using amine coupling kit (GE Healthcare) according to the recommended settings by GE Healthcare. Antibodies and analytes were diluted into the respective running buffers, ACES pH7.4 and pH5.8 (20 mM ACES, 150 mM NaCl, 1.2 mM CaCl₂, 1 mg/ml BSA, 1 mg/ml CMD, 0.05% Tween 20, 0.005 w/v % NaN₃). Each antibody was captured onto the sensor surface by ProA/G. Antibody capture levels were typically 100-200 resonance units (RU). Then, recombinant C1s was injected at concentrations of 25 and 50 nM followed by dissociation at pH7.4 and pH5.8. The surface was regenerated using 10 mM Glycine-HCl, pH1.5. Kinetic parameters at neutral pH conditions and acidic conditions were determined by fitting the sensorgrams with 1:1 binding model using BIACORE (registered trademark) T200 Evaluation software, version 2.0 (GE Healthcare) or BIACORE 4000 Evaluation software. The dissociation rate at pH5.8 (after dissociation at pH7.4, indicated as pH5.8* in TABLE 2) was determined by processing and fitting data using Scrubber 2.0 (BioLogic Software) curve fitting software. The association rate (ka), dissociation rate (kd), binding affinity (KD) at pH7.4 and pH5.8 condition, and dissociation rate (kd) at pH5.8* condition of the antibodies are listed in TABLE 2. Some kinetic parameters of COS0098pHv1 in acidic condition were not correctly calculated because of its weak binding response.
(§2) Also, to observe the cross-reactivity of anti-C1s antibodies against human C1r2s2 and cyno C1r2s2 (cyno C1r2s2 His/Flag), BIACORE (registered trademark) kinetics analysis was performed.

[2] = biological target: T1, recombinant cyno C1r2s2 His/Flag …; experiment: SPR (Biacore), antibody captured on ProA/G, antigen as analyte, 37 C, pH5.8, 1.2 mM CaCl2; pH 5.8
Method: as §1, §2

Kd [1]: 0.0821 nM | koff [1]: 8.1e-05 s⁻¹ | kon [1]: 987000 M⁻¹ s⁻¹ | Kd [2]: 0.894 nM | koff [2]: 0.00105 s⁻¹ | kon [2]: 1.17e+06 M⁻¹ s⁻¹
B1: COS0098bb (antibody, V domains shown)
VH: QSVEESGGRLVTPGTPLTLTCTVSGFSLTKYTVSWVRQAPGKGLEWIGIINTGGSAYYATWAKGRFTFSKTSTTVDLQITSPTTEDTATYFCARGNGDTDYTNLWGPGTLVTVSS
VL: QVLTQTPSSVSEPVGGTVTINCQASENIYSALAWYQQKPGQPPKLLIYGASNLESGVPSRFKGSGSGTQFTLTISDLECADAATYYCQQYYFTSSTFGGGTKVEIK
notes: Anti-C1s rabbit antibody, parent of COS0098pHv1; the antibody was captured by ProA/G; also called anti-C1s antibody COS0098bb
